Test results as given in the supplement of paper PMC10567573.

B1: KCTD10 (parent)
chain: SSKEEQKLIATSNKPAVKLLYNRS

Variants of: B1
Test: protein stability index of a GFP-peptide fusion (GPS, HEK-293T) (PSI 1-6); higher = more stable
Conditions: c terminus: a fixed tail appended
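Also: lentivirally expressed fusions sorted by FACS into six bins by GFP to DsRed ratio, PSI derived from sequencing read proportions per bin multiplied by bin number.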

| Variant | protein stability index |
| --- | --- |
| SSKEEQKLIAYSNKPAVKLLYNRS | 3.6 |
| SSKEEQKLIATANKPAVKLLYNRS | 3.89 |
| SSKEEQKLIATCNKPAVKLLYNRS | 3.81 |
| SSKEEQKLIATDNKPAVKLLYNRS | 4.52 |
| SSKEEQKLIATENKPAVKLLYNRS | 4.42 |
| SSKEEQKLIATFNKPAVKLLYNRS | 3.34 |
| SSKEEQKLIATGNKPAVKLLYNRS | 3.89 |
| SSKEEQKLIATHNKPAVKLLYNRS | 3.46 |
| SSKEEQKLIATINKPAVKLLYNRS | 3.92 |
| SSKEEQKLIATKNKPAVKLLYNRS | 4.27 |
| SSKEEQKLIATLNKPAVKLLYNRS | 3.72 |
| SSKEEQKLIATMNKPAVKLLYNRS | 3.42 |
| SSKEEQKLIATNNKPAVKLLYNRS | 4.02 |
| SSKEEQKLIATPNKPAVKLLYNRS | 4.29 |
| SSKEEQKLIATQNKPAVKLLYNRS | 4.26 |
| SSKEEQKLIATRNKPAVKLLYNRS | 4.02 |
| SSKEEQKLIATTNKPAVKLLYNRS | 4.34 |
| SSKEEQKLIATVNKPAVKLLYNRS | 3.88 |
| SSKEEQKLIATWNKPAVKLLYNRS | 2.79 |
| SSKEEQKLIATYNKPAVKLLYNRS | 3.38 |
| SSKEEQKLIATSAKPAVKLLYNRS | 3.58 |
| SSKEEQKLIATSCKPAVKLLYNRS | 2.31 |
| SSKEEQKLIATSDKPAVKLLYNRS | 4.73 |
| SSKEEQKLIATSEKPAVKLLYNRS | 4.54 |

| Variant | protein stability index |
| --- | --- |
| SSKEEQKLIATSFKPAVKLLYNRS | 3.16 |
| SSKEEQKLIATSGKPAVKLLYNRS | 4.28 |
| SSKEEQKLIATSHKPAVKLLYNRS | 3.9 |
| SSKEEQKLIATSIKPAVKLLYNRS | 3.21 |
| SSKEEQKLIATSKKPAVKLLYNRS | 3.96 |
| SSKEEQKLIATSLKPAVKLLYNRS | 3.3 |
| SSKEEQKLIATSMKPAVKLLYNRS | 3.69 |
| SSKEEQKLIATSPKPAVKLLYNRS | 4.12 |
| SSKEEQKLIATSQKPAVKLLYNRS | 2.95 |
| SSKEEQKLIATSRKPAVKLLYNRS | 3.33 |
| SSKEEQKLIATSSKPAVKLLYNRS | 3.79 |
| SSKEEQKLIATSTKPAVKLLYNRS | 4 |
| SSKEEQKLIATSVKPAVKLLYNRS | 3.75 |
| SSKEEQKLIATSWKPAVKLLYNRS | 2.67 |
| SSKEEQKLIATSYKPAVKLLYNRS | 3.38 |
| SSKEEQKLIATSNAPAVKLLYNRS | 3.76 |
| SSKEEQKLIATSNCPAVKLLYNRS | 3.73 |
| SSKEEQKLIATSNDPAVKLLYNRS | 4.57 |
| SSKEEQKLIATSNEPAVKLLYNRS | 4.39 |
| SSKEEQKLIATSNFPAVKLLYNRS | 3.39 |
| SSKEEQKLIATSNGPAVKLLYNRS | 4.03 |
| SSKEEQKLIATSNHPAVKLLYNRS | 3.59 |
| SSKEEQKLIATSNIPAVKLLYNRS | 3.66 |
| SSKEEQKLIATSNLPAVKLLYNRS | 3.8 |

| Variant | protein stability index |
| --- | --- |
| SSKEEQKLIATSNMPAVKLLYNRS | 3.76 |
| SSKEEQKLIATSNNPAVKLLYNRS | 3.96 |
| SSKEEQKLIATSNPPAVKLLYNRS | 4.32 |
| SSKEEQKLIATSNQPAVKLLYNRS | 4.28 |
| SSKEEQKLIATSNRPAVKLLYNRS | 4.2 |
| SSKEEQKLIATSNSPAVKLLYNRS | 4.24 |
| SSKEEQKLIATSNTPAVKLLYNRS | 4.04 |
| SSKEEQKLIATSNVPAVKLLYNRS | 3.96 |
| SSKEEQKLIATSNWPAVKLLYNRS | 2.63 |
| SSKEEQKLIATSNYPAVKLLYNRS | 3.46 |
| SSKEEQKLIATSNKAAVKLLYNRS | 3.54 |
| SSKEEQKLIATSNKCAVKLLYNRS | 2.96 |
| SSKEEQKLIATSNKDAVKLLYNRS | 4.2 |
| SSKEEQKLIATSNKEAVKLLYNRS | 4.53 |
| SSKEEQKLIATSNKFAVKLLYNRS | 3.1 |
| SSKEEQKLIATSNKGAVKLLYNRS | 4.24 |
| SSKEEQKLIATSNKHAVKLLYNRS | 3.86 |
| SSKEEQKLIATSNKIAVKLLYNRS | 2.81 |
| SSKEEQKLIATSNKKAVKLLYNRS | 3.39 |
| SSKEEQKLIATSNKLAVKLLYNRS | 2.93 |
| SSKEEQKLIATSNKMAVKLLYNRS | 3.47 |
| SSKEEQKLIATSNKNAVKLLYNRS | 4.08 |
| SSKEEQKLIATSNKQAVKLLYNRS | 3.96 |
| SSKEEQKLIATSNKRAVKLLYNRS | 3.51 |

| Variant | protein stability index |
| --- | --- |
| SSKEEQKLIATSNKSAVKLLYNRS | 4.07 |
| SSKEEQKLIATSNKTAVKLLYNRS | 3.73 |
| SSKEEQKLIATSNKVAVKLLYNRS | 3.13 |
| SSKEEQKLIATSNKWAVKLLYNRS | 2.19 |
| SSKEEQKLIATSNKYAVKLLYNRS | 3.1 |
| SSKEEQKLIATSNKPCVKLLYNRS | 3.74 |
| SSKEEQKLIATSNKPDVKLLYNRS | 4.18 |
| SSKEEQKLIATSNKPEVKLLYNRS | 4.26 |
| SSKEEQKLIATSNKPFVKLLYNRS | 3.57 |
| SSKEEQKLIATSNKPGVKLLYNRS | 3.79 |
| SSKEEQKLIATSNKPHVKLLYNRS | 4.16 |
| SSKEEQKLIATSNKPIVKLLYNRS | 3.97 |
| SSKEEQKLIATSNKPKVKLLYNRS | 4.33 |
| SSKEEQKLIATSNKPLVKLLYNRS | 3.54 |
| SSKEEQKLIATSNKPMVKLLYNRS | 3.84 |
| SSKEEQKLIATSNKPNVKLLYNRS | 4.19 |
| SSKEEQKLIATSNKPPVKLLYNRS | 3.95 |
| SSKEEQKLIATSNKPQVKLLYNRS | 4.19 |
| SSKEEQKLIATSNKPRVKLLYNRS | 3.8 |
| SSKEEQKLIATSNKPSVKLLYNRS | 4.2 |
| SSKEEQKLIATSNKPTVKLLYNRS | 4.1 |
| SSKEEQKLIATSNKPVVKLLYNRS | 3.89 |
| SSKEEQKLIATSNKPWVKLLYNRS | 2.94 |
| SSKEEQKLIATSNKPYVKLLYNRS | 3.56 |

| Variant | protein stability index |
| --- | --- |
| SSKEEQKLIATSNKPAAKLLYNRS | 4.34 |
| SSKEEQKLIATSNKPACKLLYNRS | 4.21 |
| SSKEEQKLIATSNKPADKLLYNRS | 4.41 |
| SSKEEQKLIATSNKPAEKLLYNRS | 4.15 |
| SSKEEQKLIATSNKPAFKLLYNRS | 2.74 |
| SSKEEQKLIATSNKPAGKLLYNRS | 4.3 |
| SSKEEQKLIATSNKPAHKLLYNRS | 4.35 |
| SSKEEQKLIATSNKPAIKLLYNRS | 4.02 |
| SSKEEQKLIATSNKPAKKLLYNRS | 4.61 |
| SSKEEQKLIATSNKPALKLLYNRS | 4.02 |
| SSKEEQKLIATSNKPAMKLLYNRS | 3.97 |
| SSKEEQKLIATSNKPANKLLYNRS | 4.76 |
| SSKEEQKLIATSNKPAPKLLYNRS | 4.31 |
| SSKEEQKLIATSNKPAQKLLYNRS | 4.52 |
| SSKEEQKLIATSNKPARKLLYNRS | 3.94 |
| SSKEEQKLIATSNKPASKLLYNRS | 4.3 |
| SSKEEQKLIATSNKPATKLLYNRS | 4.28 |
| SSKEEQKLIATSNKPAWKLLYNRS | 3.39 |
| SSKEEQKLIATSNKPAYKLLYNRS | 3.51 |
| SSKEEQKLIATSNKPAVALLYNRS | 4.05 |
| SSKEEQKLIATSNKPAVCLLYNRS | 4.21 |
| SSKEEQKLIATSNKPAVDLLYNRS | 4.25 |
| SSKEEQKLIATSNKPAVELLYNRS | 4.34 |
| SSKEEQKLIATSNKPAVFLLYNRS | 2.83 |

| Variant | protein stability index |
| --- | --- |
| SSKEEQKLIATSNKPAVGLLYNRS | 4.02 |
| SSKEEQKLIATSNKPAVHLLYNRS | 3.89 |
| SSKEEQKLIATSNKPAVILLYNRS | 2.34 |
| SSKEEQKLIATSNKPAVLLLYNRS | 3.25 |
| SSKEEQKLIATSNKPAVMLLYNRS | 3.45 |
| SSKEEQKLIATSNKPAVNLLYNRS | 4.26 |
| SSKEEQKLIATSNKPAVPLLYNRS | 4.25 |
| SSKEEQKLIATSNKPAVQLLYNRS | 4.39 |
| SSKEEQKLIATSNKPAVRLLYNRS | 4.33 |
| SSKEEQKLIATSNKPAVSLLYNRS | 4.39 |
| SSKEEQKLIATSNKPAVTLLYNRS | 3.74 |
| SSKEEQKLIATSNKPAVVLLYNRS | 3.13 |
| SSKEEQKLIATSNKPAVWLLYNRS | 2.4 |
| SSKEEQKLIATSNKPAVYLLYNRS | 3.03 |
| SSKEEQKLIATSNKPAVKALYNRS | 4.59 |
| SSKEEQKLIATSNKPAVKCLYNRS | 4.39 |
| SSKEEQKLIATSNKPAVKDLYNRS | 4.62 |
| SSKEEQKLIATSNKPAVKELYNRS | 4.44 |
| SSKEEQKLIATSNKPAVKFLYNRS | 4.12 |
| SSKEEQKLIATSNKPAVKGLYNRS | 4.13 |
| SSKEEQKLIATSNKPAVKHLYNRS | 4.41 |
| SSKEEQKLIATSNKPAVKILYNRS | 4.59 |
| SSKEEQKLIATSNKPAVKKLYNRS | 4.69 |
| SSKEEQKLIATSNKPAVKMLYNRS | 4.59 |

| Variant | protein stability index |
| --- | --- |
| SSKEEQKLIATSNKPAVKNLYNRS | 4.72 |
| SSKEEQKLIATSNKPAVKPLYNRS | 4.94 |
| SSKEEQKLIATSNKPAVKQLYNRS | 4.31 |
| SSKEEQKLIATSNKPAVKRLYNRS | 4.29 |
| SSKEEQKLIATSNKPAVKSLYNRS | 4.18 |
| SSKEEQKLIATSNKPAVKTLYNRS | 4.95 |
| SSKEEQKLIATSNKPAVKVLYNRS | 4.25 |
| SSKEEQKLIATSNKPAVKWLYNRS | 3.35 |
| SSKEEQKLIATSNKPAVKYLYNRS | 4.56 |
| SSKEEQKLIATSNKPAVKLAYNRS | 4.89 |
| SSKEEQKLIATSNKPAVKLCYNRS | 3.79 |
| SSKEEQKLIATSNKPAVKLDYNRS | 4.53 |
| SSKEEQKLIATSNKPAVKLEYNRS | 3.98 |
| SSKEEQKLIATSNKPAVKLFYNRS | 3.95 |
| SSKEEQKLIATSNKPAVKLGYNRS | 4.73 |
| SSKEEQKLIATSNKPAVKLHYNRS | 4.48 |
| SSKEEQKLIATSNKPAVKLIYNRS | 4.6 |
| SSKEEQKLIATSNKPAVKLKYNRS | 4.53 |
| SSKEEQKLIATSNKPAVKLMYNRS | 4.11 |
| SSKEEQKLIATSNKPAVKLNYNRS | 4.37 |
| SSKEEQKLIATSNKPAVKLPYNRS | 4.98 |
| SSKEEQKLIATSNKPAVKLQYNRS | 4.28 |
| SSKEEQKLIATSNKPAVKLRYNRS | 4.46 |
| SSKEEQKLIATSNKPAVKLSYNRS | 4.35 |

| Variant | protein stability index |
| --- | --- |
| SSKEEQKLIATSNKPAVKLTYNRS | 4.72 |
| SSKEEQKLIATSNKPAVKLVYNRS | 4.09 |
| SSKEEQKLIATSNKPAVKLWYNRS | 3.35 |
| SSKEEQKLIATSNKPAVKLYYNRS | 3.82 |
| SSKEEQKLIATSNKPAVKLLANRS | 4.33 |
| SSKEEQKLIATSNKPAVKLLCNRS | 4.73 |
| SSKEEQKLIATSNKPAVKLLDNRS | 4.93 |
| SSKEEQKLIATSNKPAVKLLENRS | 4.25 |
| SSKEEQKLIATSNKPAVKLLFNRS | 3.75 |
| SSKEEQKLIATSNKPAVKLLGNRS | 4.97 |
| SSKEEQKLIATSNKPAVKLLHNRS | 4.46 |
| SSKEEQKLIATSNKPAVKLLINRS | 4.13 |
| SSKEEQKLIATSNKPAVKLLKNRS | 4.68 |
| SSKEEQKLIATSNKPAVKLLLNRS | 4.06 |
| SSKEEQKLIATSNKPAVKLLMNRS | 4.18 |
| SSKEEQKLIATSNKPAVKLLNNRS | 4.58 |
| SSKEEQKLIATSNKPAVKLLPNRS | 4.07 |
| SSKEEQKLIATSNKPAVKLLQNRS | 4.46 |
| SSKEEQKLIATSNKPAVKLLRNRS | 4.42 |
| SSKEEQKLIATSNKPAVKLLSNRS | 4.33 |
